Experimental data published in the supplement of paper PMC10567573.

B1: RHOBTB2 (parent)
chain: HHHHGRDFLLRAASFDVCESVDEA
B2: ZNF263 (parent)
chain: KPYKCTLCGENFSHRSNLIRHQRI

Variants of: B1
Assay: protein stability index of a GFP-peptide fusion (GPS, HEK-293T) (PSI 1-6); higher = more stable
Details: c terminus: a fixed tail appended
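Note: lentivirally expressed fusions sorted by FACS into six bins by GFP to DsRed ratio, PSI derived from sequencing read proportions per bin multiplied by bin number.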

Protein stability index of substitutions, site by site:
H4: F 3.38, K 3.25, D 4.12, G 3.73, E 3.96, M 3.61, L 3.65, A 3.67, I 3.83, C 2.67
H3: V 3.65, S 3.83, K 3.04, T 3.58, C 2.92, D 4.67, Y 3.51, N 4.44, W 2.43, E 4.71, L 3.62, M 3.4, A 3.58, F 3.33, P 3.56, R 2.76, I 3.52, Q 3.87, G 3.9
H1: G 4.55, Q 4.26, E 4.42, Y 3.84, D 4.88, V 3.21, P 4.71, A 4.49, F 1.48, C 4.02, K 4.35, L 3.74, R 3.92, M 4.17, N 4.53, S 4.34, W 3.36, T 4.59, I 3.45
H2: A 4.04, S 2.62, W 3.35, L 3.93, C 3.43, K 4.67, I 3.92, T 1.8, P 4.49, Y 4.16, G 3.72, Q 4.04, E 4.75, R 3.9, F 3.69, N 4.52, M 3.96, D 4.67, V 3.46

Variants of: B2
Assay: as above
Details: c terminus: a fixed tail appended

Protein stability index, by site and new letter:
G9: N 2.36, A 2.19, Q 2.79, H 1.81, Y 2.61, F 2.43, T 1.39, S 2.38, R 2.5, C 2.16, V 2.14, P 1.67, M 2.38
H14: S 3.56, Q 1.9, N 2.56, F 2.23, L 2.73, T 2.75, P 1.85, E 2.95, I 2.07
P2: T 2.53, A 2.7, R 3.12, W 2.05, S 2.59, V 2.98, Y 2.14, E 2.67, K 2.92, M 2.05, Q 2.09
C8: L 2.44, Y 2.41, M 1.83, N 2.89, G 2.45, V 2.47, A 2.34, S 4.1, Q 2.74, P 2.45, E 2.48
F12: D 1.28, P 1.57, S 1.99, K 1.58, Y 1.44, R 1.54, M 2.01, W 2.12, V 3.52, A 1.97, E 1.93
N11: R 3.03, T 3.59, V 2.83, Y 2.8, K 2.98, L 2.69, M 3.49, Q 2.62, E 3.23, H 3.33, F 2.61, D 2.23
C5: K 2.44, V 2.06, M 1.67, P 2.44, D 2.69, A 2.52, Y 1.96, Q 3.12, G 2.22, F 1.45
L7: N 2.78, Q 3.02, H 3.88, W 2.69, K 3.22, D 3.02, F 2.51, Y 3.25, M 3.12, V 3.37, S 2.68, P 1.69
I19: P 2.11, N 1.77, W 1.5, H 2.33, D 2.74, Y 2.3, G 3.08, E 2.89, A 2.57, M 2.62, Q 2.44
T6: K 2.69, V 2.07, Q 2.21, A 2.43, D 2.7, P 2.42, H 3.1, Y 1.98, E 2.9, F 2.61
K1: R 2.66, I 2.16, V 1.56, P 3.08, D 3.07, A 2.19, S 2.81, G 2.27, N 2.12, T 2.08, C 2.67, M 2.65
R23: I 2.48, G 2.49, D 2.73, V 2.01, Q 2.34, T 1.88, P 1.33, W 1.65, L 2.82, E 2.67, Y 2.57, M 2.88, F 1.66
S16: N 2.13, I 2.41, A 2.04, L 2.88, T 1.65, F 2.02, W 2.43, H 2.76, M 2.26, K 3.28
K4: A 2.32, W 2.35, H 2.95, E 2.35, Q 2.48, M 2.23, Y 2.16, N 1.94, R 2.54, D 1.75, L 1.84
L18: E 1.81, N 2.21, G 1.98, K 2.19, Y 2.38, F 2.56, V 2.59, D 1.74, W 2.19, Q 2.42, R 2.81
R20: M 2.22, W 1.76, A 2.43, E 3.12, T 2.33, C 2.45, H 1.76, G 2.37, V 1.99, N 2.38, S 1.8
I24: P 2.59, A 2.81, F 1.93, R 3.16, T 2.64, Y 2.51, C 3.76, E 3.68, G 2.75, V 2.63, Q 4.56, W 2.4, M 2.74
H21: K 2.04, P 1.69, R 1.78, T 2.22, L 1.89, I 1.58, E 2.58, F 2.34, N 3.21, Y 2.46, Q 1.14
S13: P 2.45, G 2.59, T 2.13, Q 2.84, V 2.39, D 2.12, H 2.38, K 2.38
R15: F 2.96, I 2.73, T 1.59, V 2.88, M 2.85, Y 2.45, A 2.87, P 2.52, G 2.08, L 2.45, K 2.28
Q22: T 2.54, L 2.35, A 2.49, P 1.39, K 2.14, C 2.44, I 2.72, S 2.54, W 2.65
N17: G 3.16, C 2.47, R 2.64, S 2.99, H 3.64, L 2.77, A 3.59, I 2.93, P 1.87, D 3.88, T 2.65
E10: S 2.61, P 2.09, V 2.56, A 2.82, C 1.94, K 3.4, M 2.67, G 3.09, W 2.35, R 2.97, F 2.36, L 1.88, Q 2.98
Y3: D 1.84, M 1.73, Q 2.14, P 1.85, T 2.4, A 1.9, N 2.47, E 1.78, R 3.54, C 2.47, V 2.28, W 2.42, S 2.11
